± gives the uncertainty stated by the source.
Test: self-splicing fitness, log relative to wild type (ln ratio); higher = more splicing; Tetrahymena group I intron in knt gene, E. coli kanamycin selection, DiMSum; sequences stand for … in CUCUCU…GGAGGGAAAAGUUAUCAGGCAUGCACCUGGUAGCUAGUCUUUAAACCAAUAGAUUGCAUCGGUUUAAAAGGCAAGACCGUCAAAUUGCGGGAAAGGGGUCAACAGCCGUUCAGUACCAAGUCUCAGGGGAAACUUUGAGAUGGCCUUGCAAAGGGUAUGGUAAUAAGCUGACGGACAUGGUCCUAACCACGCAGCCAAGUCCUAAGUCAACAGAUCUUCUGUUGAUAUGGAUGCAGUUCACAGACUAAAUGUCGGUCGGGGAAGAUGUAUUCUUCUCAUAAGAUAUAGUCGGACCUCUCCUUAAUGGGAGCUAGCGGAUGAAGUGAUGCAACACUGGAGCCGCUGGGAACUAAUUUGUAUGCGAAAGUAUAUUGAUUAGUUUUGGAGUACUCGUGGUCG
Summary of the method: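 Pooled colonies went to amplicon sequencing on an Illumina HiSeq 2500 after six replicate transformations. The plates were LB agar with 100 μg/mL carbenicillin, 50 μM IPTG and 0.2% rhamnose, with or without 25 μg/mL kanamycin, incubated overnight at 37°C or 30°C. The E. coli BL21(DE3) library had all eight P1ex-region intron nucleotides randomised, the intron placed in the knt kanamycin-resistance gene on pET-22b(+). DiMSum fitness is the error-weighted combination of replicate fold changes, kanamycin against none, normalised to wild type.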

| Sequence | self-splicing fitness (ln) (30 °C) | self-splicing fitness (ln) (37 °C) |
| --- | --- | --- |
| CUCGAGCAAUAUUACGUUUG | -3.74 ± 0.24 | -2.11 ± 0.16 |
| CUCUAGCAAUAUUACGACGA | -2.13 ± 0.22 | -0.928 ± 0.16 |
| CUCUAGCAAUAUUACGAGAG | -2.9 ± 0.18 | -1.69 ± 0.2 |
| CUCUAGCAAUAUUACGAGGG | -3.28 ± 0.22 | -1.45 ± 0.18 |
| CUCUAGCAAUAUUACGAGUA |  | -1.18 ± 0.21 |
| CUCUAGCAAUAUUACGAGUU | -3.44 ± 0.38 | -3.55 ± 0.42 |
| CUCUAGCAAUAUUACGAUAG | -3.88 ± 0.2 | -3.58 ± 0.28 |
| CUCUAGCAAUAUUACGAUCA | -2.28 ± 0.23 | -2.58 ± 0.33 |
| CUCUAGCAAUAUUACGAUGU | -3.53 ± 0.22 | -2.92 ± 0.25 |
| CUCUAGCAAUAUUACGCAAU |  | -3.09 ± 0.38 |
| CUCUAGCAAUAUUACGCAGC | -3.2 ± 0.25 |  |
| CUCUAGCAAUAUUACGCCAU |  | -3.56 ± 0.33 |
| CUCUAGCAAUAUUACGCCCG |  | -0.832 ± 0.42 |
| CUCUAGCAAUAUUACGCGAG | -3.63 ± 0.25 | -3.28 ± 0.37 |
| CUCUAGCAAUAUUACGCGAU | -3.29 ± 0.17 | -2.88 ± 0.19 |
| CUCUAGCAAUAUUACGCUCA | -1.32 ± 0.3 | -3.25 ± 0.37 |
| CUCUAGCAAUAUUACGCUCU | -3.22 ± 0.19 | -3.77 ± 0.31 |
| CUCUAGCAAUAUUACGCUUA | -4 ± 0.37 | -3.06 ± 0.27 |
| CUCUAGCAAUAUUACGCUUG | -3.57 ± 0.24 | -3.45 ± 0.42 |
| CUCUAGCAAUAUUACGGCAC | -2.61 ± 0.26 |  |
| CUCUAGCAAUAUUACGGCUC | -3.83 ± 0.22 | -2.09 ± 0.21 |

| Sequence | self-splicing fitness (ln) (30 °C) | self-splicing fitness (ln) (37 °C) |
| --- | --- | --- |
| CUCUAGCAAUAUUACGGGAA | -2.54 ± 0.14 | -1.11 ± 0.11 |
| CUCUAGCAAUAUUACGGGAG | -3.78 ± 0.19 | -2.26 ± 0.19 |
| CUCUAGCAAUAUUACGGUGA | -3.56 ± 0.21 | -1.8 ± 0.2 |
| CUCUAGCAAUAUUACGGUUC | -2.69 ± 0.17 | -2.46 ± 0.29 |
| CUCUAGCAAUAUUACGUAGC | -3.51 ± 0.37 | -3.53 ± 0.46 |
| CUCUAGCAAUAUUACGUUUC | -5.02 ± 0.45 | -2.62 ± 0.19 |
| CUGAAGCAAUAUUACGAAGA | -2.5 ± 0.36 | -0.888 ± 0.25 |
| CUGAAGCAAUAUUACGAAGU | -3.58 ± 0.2 | -2.77 ± 0.41 |
| CUGAAGCAAUAUUACGACAC | -2.05 ± 0.32 |  |
| CUGAAGCAAUAUUACGACGG | -0.289 ± 0.15 | -0.879 ± 0.14 |
| CUGAAGCAAUAUUACGAUCA | -1.68 ± 0.13 | -1.53 ± 0.13 |
| CUGAAGCAAUAUUACGCCGU | -2.92 ± 0.31 | -2.4 ± 0.3 |
| CUGAAGCAAUAUUACGCGCG | 0.18 ± 0.092 | -0.0678 ± 0.075 |
| CUGAAGCAAUAUUACGCUAA |  | -2.45 ± 0.32 |
| CUGAAGCAAUAUUACGGACG | 0.0263 ± 0.084 | 0.166 ± 0.1 |
| CUGAAGCAAUAUUACGGAGC |  | -0.931 ± 0.49 |
| CUGAAGCAAUAUUACGGAGU | -3.2 ± 0.37 | -2.33 ± 0.26 |
| CUGAAGCAAUAUUACGGCCG | -0.134 ± 0.2 | 0.451 ± 0.27 |
| CUGAAGCAAUAUUACGGUUC | -3.05 ± 0.18 | -3.5 ± 0.3 |
| CUGAAGCAAUAUUACGUCAG | -4.14 ± 0.2 | -1.46 ± 0.14 |
| CUGAAGCAAUAUUACGUCGA | -2.2 ± 0.17 | -1.57 ± 0.23 |

| Sequence | self-splicing fitness (ln) (30 °C) | self-splicing fitness (ln) (37 °C) |
| --- | --- | --- |
| CUGAAGCAAUAUUACGUUGC | -4.09 ± 0.26 | -0.264 ± 0.2 |
| CUGCAGCAAUAUUACGCAAA | -2.18 ± 0.2 | -3.55 ± 0.24 |
| CUGCAGCAAUAUUACGCAGC | -2.88 ± 0.32 |  |
| CUGCAGCAAUAUUACGCAUG | -2.5 ± 0.12 | -1.8 ± 0.14 |
| CUGCAGCAAUAUUACGCCAC | -2.82 ± 0.26 | -2.82 ± 0.44 |
| CUGCAGCAAUAUUACGCCCU | -3.15 ± 0.37 | -1.71 ± 0.33 |
| CUGCAGCAAUAUUACGCCGU |  | -1.3 ± 0.31 |
| CUGCAGCAAUAUUACGCGUU | -3.32 ± 0.12 | -2.1 ± 0.16 |
| CUGCAGCAAUAUUACGCUAA | -3.28 ± 0.29 |  |
| CUGCAGCAAUAUUACGGCCA | -1.25 ± 0.34 | -0.578 ± 0.24 |
| CUGCAGCAAUAUUACGGGUA | -3.32 ± 0.4 | -0.797 ± 0.14 |
| CUGCAGCAAUAUUACGUAAG | -0.296 ± 0.069 | 0.277 ± 0.08 |
| CUGCAGCAAUAUUACGUAUG | -1.27 ± 0.091 | -1.19 ± 0.12 |
| CUGCAGCAAUAUUACGUCCC | -1.66 ± 0.42 |  |
| CUGCAGCAAUAUUACGUCGC | -4.61 ± 0.46 | -2.83 ± 0.32 |
| CUGCAGCAAUAUUACGUGGC | -3.72 ± 0.21 | -3.03 ± 0.24 |
| CUGGAGCAAUAUUACGAAUC | -3.47 ± 0.43 | -1.68 ± 0.45 |
| CUGGAGCAAUAUUACGAUCG | -1.7 ± 0.14 | 0.264 ± 0.21 |
| CUGGAGCAAUAUUACGGAAU |  | -2.05 ± 0.36 |
| CUGGAGCAAUAUUACGGACG | -1.4 ± 0.11 | -0.808 ± 0.11 |
| CUGGAGCAAUAUUACGGCUG | -1.48 ± 0.15 | -0.00856 ± 0.18 |

| Sequence | self-splicing fitness (ln) (30 °C) | self-splicing fitness (ln) (37 °C) |
| --- | --- | --- |
| CUGGAGCAAUAUUACGGGGC | -4.12 ± 0.46 | -2.29 ± 0.46 |
| CUGGAGCAAUAUUACGGGUA | -2.59 ± 0.23 | -1.77 ± 0.26 |
| CUGGAGCAAUAUUACGUAAA | -3.78 ± 0.36 | -2.22 ± 0.3 |
| CUGGAGCAAUAUUACGUAAG | -1.06 ± 0.083 | -0.0976 ± 0.1 |
| CUGGAGCAAUAUUACGUAGU |  | -3.43 ± 0.46 |
| CUGGAGCAAUAUUACGUCCA |  | -2.26 ± 0.44 |
| CUGUAGCAAUAUUACGACCC | -1.04 ± 0.43 |  |
| CUGUAGCAAUAUUACGACUC | -4.11 ± 0.42 | -1 ± 0.3 |
| CUGUAGCAAUAUUACGCAGC | -3.17 ± 0.41 |  |
| CUGUAGCAAUAUUACGCAUU | -3.8 ± 0.27 | -3.28 ± 0.47 |
| CUGUAGCAAUAUUACGCCGG | -2.3 ± 0.2 | -0.642 ± 0.19 |
| CUGUAGCAAUAUUACGCCGU |  | -2.96 ± 0.4 |
| CUGUAGCAAUAUUACGCCUC | -2.16 ± 0.4 |  |
| CUGUAGCAAUAUUACGCCUU | -3.46 ± 0.35 | -2.74 ± 0.3 |
| CUGUAGCAAUAUUACGCUCA | -2.22 ± 0.22 | -1.95 ± 0.23 |
| CUGUAGCAAUAUUACGGAAA | -0.916 ± 0.34 |  |
| CUGUAGCAAUAUUACGGUCG | -0.455 ± 0.09 | 0.323 ± 0.12 |
| CUGUAGCAAUAUUACGUACA | -3.41 ± 0.27 | -1.65 ± 0.18 |
| CUGUAGCAAUAUUACGUCGC | -2.89 ± 0.28 | -3.19 ± 0.4 |
| CUGUAGCAAUAUUACGUGAC | -0.572 ± 0.098 | -0.0647 ± 0.16 |

From the supplement of paper PMC7877785
